Laboratory results reported in US20230340087A1.

Target: Clostridium difficile toxin A (TcdA) (Clostridium difficile) (UniProt P16154)
Assay: cell-based or functional assay

Chain of Clostridium difficile toxin A (TcdA) (Clostridium difficile) (P16154 whole entry): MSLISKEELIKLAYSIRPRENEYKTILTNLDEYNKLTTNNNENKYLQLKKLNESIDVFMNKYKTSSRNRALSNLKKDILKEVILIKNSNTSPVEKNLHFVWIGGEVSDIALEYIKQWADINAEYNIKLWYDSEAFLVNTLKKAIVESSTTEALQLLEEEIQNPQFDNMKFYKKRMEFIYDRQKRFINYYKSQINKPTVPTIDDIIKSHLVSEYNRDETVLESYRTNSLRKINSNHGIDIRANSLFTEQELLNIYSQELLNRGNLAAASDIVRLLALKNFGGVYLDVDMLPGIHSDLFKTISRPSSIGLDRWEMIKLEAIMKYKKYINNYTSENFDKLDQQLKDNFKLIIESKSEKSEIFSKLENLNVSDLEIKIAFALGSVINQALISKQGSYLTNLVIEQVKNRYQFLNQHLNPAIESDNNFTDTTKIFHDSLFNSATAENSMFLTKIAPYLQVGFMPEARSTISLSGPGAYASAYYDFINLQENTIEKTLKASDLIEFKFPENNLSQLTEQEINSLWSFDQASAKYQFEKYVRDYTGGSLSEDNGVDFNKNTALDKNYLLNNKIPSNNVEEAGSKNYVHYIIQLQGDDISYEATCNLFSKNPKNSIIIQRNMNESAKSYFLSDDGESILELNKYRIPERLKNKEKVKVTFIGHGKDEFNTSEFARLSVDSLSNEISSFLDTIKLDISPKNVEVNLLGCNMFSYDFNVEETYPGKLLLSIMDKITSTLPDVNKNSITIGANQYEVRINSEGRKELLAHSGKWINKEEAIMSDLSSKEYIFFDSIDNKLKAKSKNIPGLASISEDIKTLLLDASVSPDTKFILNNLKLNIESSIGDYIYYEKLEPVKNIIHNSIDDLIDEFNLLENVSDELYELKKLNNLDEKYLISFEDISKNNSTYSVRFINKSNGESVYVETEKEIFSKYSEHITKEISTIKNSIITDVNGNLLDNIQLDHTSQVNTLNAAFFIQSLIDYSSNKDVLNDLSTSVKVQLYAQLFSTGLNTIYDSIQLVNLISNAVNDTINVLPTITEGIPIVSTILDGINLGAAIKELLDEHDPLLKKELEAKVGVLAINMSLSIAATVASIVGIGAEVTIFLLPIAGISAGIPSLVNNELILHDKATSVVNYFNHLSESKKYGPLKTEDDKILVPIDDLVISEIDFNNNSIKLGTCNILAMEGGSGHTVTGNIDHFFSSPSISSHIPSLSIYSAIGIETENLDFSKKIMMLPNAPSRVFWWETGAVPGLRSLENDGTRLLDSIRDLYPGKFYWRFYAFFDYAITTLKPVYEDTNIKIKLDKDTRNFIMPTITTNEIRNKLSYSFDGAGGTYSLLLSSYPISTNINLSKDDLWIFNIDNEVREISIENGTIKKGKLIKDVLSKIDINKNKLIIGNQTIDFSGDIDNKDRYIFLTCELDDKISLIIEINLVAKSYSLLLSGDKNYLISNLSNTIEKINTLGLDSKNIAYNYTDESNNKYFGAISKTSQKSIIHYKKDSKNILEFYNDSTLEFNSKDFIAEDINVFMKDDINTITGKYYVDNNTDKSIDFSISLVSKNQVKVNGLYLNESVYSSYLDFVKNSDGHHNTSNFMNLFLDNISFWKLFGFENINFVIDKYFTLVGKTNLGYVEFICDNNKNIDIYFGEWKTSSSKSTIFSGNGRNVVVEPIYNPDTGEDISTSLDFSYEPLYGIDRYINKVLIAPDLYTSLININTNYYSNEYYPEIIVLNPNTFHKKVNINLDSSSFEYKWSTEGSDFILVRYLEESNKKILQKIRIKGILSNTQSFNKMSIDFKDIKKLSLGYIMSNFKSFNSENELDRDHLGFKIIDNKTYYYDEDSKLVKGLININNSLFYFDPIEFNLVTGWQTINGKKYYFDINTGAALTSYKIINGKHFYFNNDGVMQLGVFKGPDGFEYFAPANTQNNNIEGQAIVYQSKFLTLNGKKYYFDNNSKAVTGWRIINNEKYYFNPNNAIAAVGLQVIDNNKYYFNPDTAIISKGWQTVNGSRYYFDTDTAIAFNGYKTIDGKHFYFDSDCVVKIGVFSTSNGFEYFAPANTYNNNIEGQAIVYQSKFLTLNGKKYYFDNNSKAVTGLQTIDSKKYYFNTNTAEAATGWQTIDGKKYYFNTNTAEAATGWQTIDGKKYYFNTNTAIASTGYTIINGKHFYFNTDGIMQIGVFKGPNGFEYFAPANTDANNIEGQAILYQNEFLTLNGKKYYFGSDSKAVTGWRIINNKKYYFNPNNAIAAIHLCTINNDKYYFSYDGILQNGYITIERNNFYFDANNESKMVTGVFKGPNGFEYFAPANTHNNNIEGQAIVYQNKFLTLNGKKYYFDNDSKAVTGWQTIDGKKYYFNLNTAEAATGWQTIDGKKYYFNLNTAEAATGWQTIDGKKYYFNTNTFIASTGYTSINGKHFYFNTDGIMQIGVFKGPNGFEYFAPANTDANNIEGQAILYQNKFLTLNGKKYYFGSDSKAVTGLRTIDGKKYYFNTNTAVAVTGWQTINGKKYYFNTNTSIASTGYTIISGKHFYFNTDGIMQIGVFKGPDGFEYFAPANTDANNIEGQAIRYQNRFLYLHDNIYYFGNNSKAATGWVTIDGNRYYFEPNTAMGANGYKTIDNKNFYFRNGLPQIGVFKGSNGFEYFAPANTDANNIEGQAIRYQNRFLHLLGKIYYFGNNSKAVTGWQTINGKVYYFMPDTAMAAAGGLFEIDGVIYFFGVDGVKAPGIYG

“Merck anti-TcdA human monoclonal antibody (actoxumab)” was tested, and the minimal dose of antibody protecting Vero cells from TcdA-induced cell rounding was > 10 nM.
